{"source": "patent US20110300138A1", "about": "(published 2011)", "molecules": {"B1": {"name": "K1-18 IgG (antibody, V domains shown)", "VH": "EVQLVQSGAEVKKPGESLKISCKGSGYSFTNYWIGWVRQMPGKGLEWMGIIYPYDSDTRYSPSFEGQVTISADKSIRTAYLHWSSLKASDTAMYYCVRPRDGSYPYDAFDIWGQGTMVTVSS", "VL": "EIVLTQSPGTLSLSPGERATLSCRASQSVSNNYLAWYQQKPGQAPRLLIYGASSRATGIPDRFSGSGSGTDFTLTISRLEPEDFAVYYCQHCGSSLRAFGQGTKVEIKR", "notes": "Human IgG1 kappa purified from hetero-hybridoma supernatant; also called human MAb K1-18"}, "B2": {"name": "K1-70 IgG (human monoclonal TSHR autoantibody with blocking activity) (antibody, V domains shown)", "VH": "EVQLVQSGAEVKKPGQSLKISCKASGYSLTDNWIGWVRQKPGKGLEWMGIIYPGDSDTRYSPSFQGQVTISADKSINTAYLQWSSLKASDTAIYYCVGLDWNYNPLRYWGPGTLVTVSS", "VL": "QSVLTQPPSVSAAPGQKVTISCSGSSSDIGSNYVSWYQQFPGTAPKLLIYDNNKRPSAIPDRFSGSKSGTSATLGITGLQTGDEADYYCGTWDSRLGIAVFGGGTQLTVLG", "notes": "IgG1 lambda purified from hetero-hybridoma supernatant"}}, "key": {"TSHR260 [1]": {"target": "T1, TSHR260 (human, UniProt P16473 22-260)", "T1 construct": "Expressed in insect cells; coated on tubes or wells by way of a mouse TSHR MAb (14C4 F(ab')2 in the stability ELISA); also called TSHR fragment of amino acids 22-260", "experiment": "ELISA on 14C4 F(ab')2 captured preparation; untreated TSHR260"}, "[2]": {"target": "TSHR260-alkaline phosphatase (human)", "experiment": "ELISA on 14C4 F(ab')2 captured preparation; untreated TSHR260-AP"}, "TSHR LRD C-CAP (human) [3]": {"target": "TSHR LRD C-CAP (human) (UniProt P16473)", "experiment": "ELISA on 14C4 F(ab')2 captured preparation; untreated TSHR LRD C-CAP"}, "TSHR260 [4]": {"target": "T1, TSHR260", "experiment": "ELISA on 14C4 F(ab')2 captured preparation; TSHR260 kept 24 hours at room temperature"}, "TSHR260 [5]": {"target": "T1, TSHR260", "experiment": "ELISA on 14C4 F(ab')2 captured preparation; TSHR260 kept 48 hours at room temperature"}, "[6]": {"target": "TSHR260-alkaline phosphatase (human)", "experiment": "ELISA on 14C4 F(ab')2 captured preparation; TSHR260-AP kept 24 hours at room temperature"}, "[7]": {"target": "TSHR260-alkaline phosphatase (human)", "experiment": "ELISA on 14C4 F(ab')2 captured preparation; TSHR260-AP kept 48 hours at room temperature"}, "[8]": {"target": "full length human TSHR, detergent-solubilised, coated on tubes or ELISA plate wells (human) (UniProt P16473)", "experiment": "ELISA on 14C4 F(ab')2 captured preparation; preparation kept 24 hours at room temperature"}, "[9]": {"target": "full length human TSHR, detergent-solubilised, coated on tubes or ELISA plate wells (human) (UniProt P16473)", "experiment": "ELISA on 14C4 F(ab')2 captured preparation; preparation kept 48 hours at room temperature"}, "TSHR LRD C-CAP (human) [10]": {"target": "TSHR LRD C-CAP (human) (UniProt P16473)", "experiment": "ELISA on 14C4 F(ab')2 captured preparation; TSHR LRD C-CAP kept 24 hours at room temperature"}, "TSHR LRD C-CAP (human) [11]": {"target": "TSHR LRD C-CAP (human) (UniProt P16473)", "experiment": "ELISA on 14C4 F(ab')2 captured preparation; TSHR LRD C-CAP kept 48 hours at room temperature"}, "[12]": {"target": "full length human TSHR, detergent-solubilised, coated on tubes or ELISA plate wells (human) (UniProt P16473)", "experiment": "ELISA: TSHR preparation captured on 14C4 F(ab')2 coated wells, M22 Fab-peroxidase binding; preparation stored at -80 C (untreated)"}, "[13]": {"target": "TSH receptor (full length human TSHR) coated on tubes (human) (UniProt P16473)", "experiment": "125I-TSH binding inhibition, TSHR coated tubes; 1 unit/L in serum"}, "[14]": {"target": "TSH receptor (full length human TSHR) coated on tubes (human) (UniProt P16473)", "experiment": "125I-TSH binding inhibition, TSHR coated tubes; 2 units/L in serum"}, "[15]": {"target": "TSH receptor (full length human TSHR) coated on tubes (human) (UniProt P16473)", "experiment": "125I-TSH binding inhibition, TSHR coated tubes; 4 units/L in serum"}, "[16]": {"target": "TSH receptor (full length human TSHR) coated on tubes (human) (UniProt P16473)", "experiment": "125I-TSH binding inhibition, TSHR coated tubes; 8 units/L in serum"}, "[17]": {"target": "TSH receptor (full length human TSHR) coated on tubes (human) (UniProt P16473)", "experiment": "125I-TSH binding inhibition, TSHR coated tubes; 40 units/L in serum"}, "[18]": {"target": "TSH receptor (full length human TSHR) coated on tubes (human) (UniProt P16473)", "experiment": "125I-TSH binding inhibition, TSHR coated tubes; 0.5 units/L in serum"}, "[19]": {"target": "TSH receptor (full length human TSHR) coated on tubes (human) (UniProt P16473)", "experiment": "125I-TSH binding inhibition, TSHR coated tubes; 0.25 units/L in serum"}, "[20]": {"target": "TSH receptor (full length human TSHR) coated on tubes (human) (UniProt P16473)", "experiment": "125I-TSH binding inhibition, TSHR coated tubes; 0.125 units/L in serum"}, "[21]": {"target": "TSH receptor (full length human TSHR) coated on tubes (human) (UniProt P16473)", "experiment": "125I-TSH binding inhibition, TSHR coated tubes; 1 unit/L in assay buffer"}, "[22]": {"target": "TSH receptor (full length human TSHR) coated on tubes (human) (UniProt P16473)", "experiment": "125I-TSH binding inhibition, TSHR coated tubes; 2 units/L in assay buffer"}, "[23]": {"target": "TSH receptor (full length human TSHR) coated on tubes (human) (UniProt P16473)", "experiment": "125I-TSH binding inhibition, TSHR coated tubes; 4 units/L in assay buffer"}, "[24]": {"target": "TSH receptor (full length human TSHR) coated on tubes (human) (UniProt P16473)", "experiment": "125I-TSH binding inhibition, TSHR coated tubes; 8 units/L in assay buffer"}, "[25]": {"target": "TSH receptor (full length human TSHR) coated on tubes (human) (UniProt P16473)", "experiment": "125I-TSH binding inhibition, TSHR coated tubes; 40 units/L in assay buffer"}, "[26]": {"target": "TSH receptor (full length human TSHR) coated on tubes (human) (UniProt P16473)", "experiment": "125I-TSH binding inhibition, TSHR coated tubes; 0.5 units/L in assay buffer"}, "[27]": {"target": "TSH receptor (full length human TSHR) coated on tubes (human) (UniProt P16473)", "experiment": "125I-TSH binding inhibition, TSHR coated tubes; 0.25 units/L in assay buffer"}, "[28]": {"target": "TSH receptor (full length human TSHR) coated on tubes (human) (UniProt P16473)", "experiment": "125I-TSH binding inhibition, TSHR coated tubes; 0.125 units/L in assay buffer"}, "[29]": {"target": "TSH receptor (full length human TSHR) coated on tubes (human) (UniProt P16473)", "experiment": "125I-TSH binding to TSHR coated tubes, in HBD pool"}, "[30]": {"target": "TSH receptor (full length human TSHR) coated on tubes (human) (UniProt P16473)", "experiment": "125I-TSH binding to TSHR coated tubes, in assay buffer"}, "[31]": {"target": "human TSHR on transfected CHO cells (human, UniProt P16473 22-764)", "experiment": "cell-based or functional assay"}, "TSHR260 [32]": {"target": "T1, TSHR260", "experiment": "Scatchard analysis, TSHR260 coated tubes (mean±SD, n=3)"}, "[33]": {"target": "T2, full length human TSHR, detergent-solubilised, coated on tubes or ELISA plate wells (human, UniProt P16473 22-764)", "T2 construct": "Full length receptor expressed in CHO cells, solubilised with detergent and held on the plastic by a mouse MAb to the C-terminus; The leader 1-21 is stated for the TSHR260 construct of the same receptor; also called TSH receptor; TSHR (full length)", "experiment": "inhibition of 125I-TSH binding to TSHR coated tubes, dilutions in HBD sera"}, "[34]": {"target": "T2, full length human TSHR, …", "experiment": "inhibition of 125I-TSH binding to TSHR coated tubes, dilutions in assay buffer", "protocol": "Binding inhibition assays were carried out using TSHR coated tubes as described in WO2004/050708A2. […] After aspiration, the tubes were washed and 100 μL of ¹²⁵I-labelled protein (5×10⁴ cpm) added and incubated for 1 hour at room temperature with shaking. The tubes were then aspirated, washed and counted in a gamma counter. Inhibition of labelled protein binding was calculated as 100×[1−(cpm bound in the presence of test material/cpm bound in the presence of control material)]."}, "[35]": {"target": "T2, full length human TSHR, …", "experiment": "Scatchard analysis, 125I-labelled antibody on full length TSHR coated tubes (mean±SD, n=3)"}, "[36]": {"target": "T3, human TSH receptor, full length, detergent-solubilised, coated on tubes or ELISA plate wells (human, UniProt P16473 22-764)", "T3 construct": "Full length recombinant receptor expressed in CHO cells, solubilised and coated via a C-terminal antibody; also called wild type TSHR; full length TSHR", "experiment": "TSHR binding affinity (summary table; Scatchard analysis, TSHR coated tubes)"}}}
{"molecule": "M22 Fab-peroxidase conjugate", "values": [{"measurement": "OD450 nm", "setting": "TSHR260 [1]", "result": 2.29, "unit": "OD450 nm"}, {"measurement": "OD450 nm", "setting": "[2]", "result": 2.4, "unit": "OD450 nm"}, {"measurement": "OD450 nm", "setting": "TSHR LRD C-CAP (human) [3]", "result": 1.83, "unit": "OD450 nm"}, {"measurement": "OD450 nm", "setting": "TSHR260 [4]", "result": 1.84, "unit": "OD450 nm"}, {"measurement": "OD450 nm", "setting": "TSHR260 [5]", "result": 1.68, "unit": "OD450 nm"}, {"measurement": "OD450 nm", "setting": "[6]", "result": 2.11, "unit": "OD450 nm"}, {"measurement": "OD450 nm", "setting": "[7]", "result": 1.98, "unit": "OD450 nm"}, {"measurement": "OD450 nm", "setting": "[8]", "result": 0.268, "unit": "OD450 nm"}, {"measurement": "OD450 nm", "setting": "[9]", "result": 0.126, "unit": "OD450 nm"}, {"measurement": "OD450 nm", "setting": "TSHR LRD C-CAP (human) [10]", "result": 1.16, "unit": "OD450 nm"}, {"measurement": "OD450 nm", "setting": "TSHR LRD C-CAP (human) [11]", "result": 1.16, "unit": "OD450 nm"}, {"measurement": "OD450 nm", "setting": "[12]", "result": 1.75, "unit": "OD450 nm"}]}
{"molecule": "Thyroid Stimulating Autoantibody reference preparation NIBSC 90/672", "values": [{"measurement": "Inhibition of binding (%)", "setting": "[13]", "result": 15.5, "unit": "%"}, {"measurement": "Inhibition of binding (%)", "setting": "[14]", "result": 22.9, "unit": "%"}, {"measurement": "Inhibition of binding (%)", "setting": "[15]", "result": 49.2, "unit": "%"}, {"measurement": "Inhibition of binding (%)", "setting": "[16]", "result": 63.2, "unit": "%"}, {"measurement": "Inhibition of binding (%)", "setting": "[17]", "result": 90, "unit": "%"}, {"measurement": "Inhibition of binding (%)", "setting": "[18]", "result": 9.3, "unit": "%"}, {"measurement": "Inhibition of binding (%)", "setting": "[19]", "result": 3.5, "unit": "%"}, {"measurement": "Inhibition of binding (%)", "setting": "[20]", "result": 2.4, "unit": "%"}, {"measurement": "Inhibition of binding (%)", "setting": "[21]", "result": 14.1, "unit": "%"}, {"measurement": "Inhibition of binding (%)", "setting": "[22]", "result": 27.2, "unit": "%"}, {"measurement": "Inhibition of binding (%)", "setting": "[23]", "result": 53.3, "unit": "%"}, {"measurement": "Inhibition of binding (%)", "setting": "[24]", "result": 62.2, "unit": "%"}, {"measurement": "Inhibition of binding (%)", "setting": "[25]", "result": 90.9, "unit": "%"}, {"measurement": "Inhibition of binding (%)", "setting": "[26]", "result": 2.8, "unit": "%"}, {"measurement": "Inhibition of binding (%)", "setting": "[27]", "result": 0.9, "unit": "%"}, {"measurement": "Inhibition of binding (%)", "setting": "[28]", "result": 5.1, "unit": "%"}]}
{"molecule": "125I-labelled TSH (ligand)", "values": [{"measurement": "% binding", "setting": "[29]", "result": 12.9, "unit": "%"}, {"measurement": "% binding", "setting": "[30]", "result": 12.6, "unit": "%"}]}
{"molecule": "B1", "values": [{"measurement": "potency of TSHR cyclic AMP stimulation, M22 against K1-18", "setting": "[31]", "result": "~1.5", "unit": "fold"}, {"measurement": "Ka", "setting": "TSHR260 [32]", "result": "5.9e+09", "unit": "M⁻¹"}, {"measurement": "fold activity in inhibition of TSH binding against K1 donor serum IgG", "setting": "[33]", "result": 6600, "unit": "times"}, {"measurement": "fold activity in inhibition of TSH binding against K1 donor serum IgG", "setting": "[34]", "result": 4700, "unit": "times"}, {"measurement": "Ka", "setting": "[35]", "result": "6.7e+09", "unit": "M⁻¹"}]}
{"molecule": "B2", "values": [{"measurement": "Ka", "setting": "[36]", "result": "3.9e+10", "unit": "M⁻¹"}]}
